# In PMC3233575, “DC-SIGN Increases the Affinity of HIV-1 Envelope Glycoprotein Interaction with CD4” (PLoS ONE, 2011):
# Target: the molecule itself
# Test: SEC; two tandem Superdex 200 3.2/30 PC columns, 100 mM Tris-HCl pH 7.9, 0.15 M NaCl, room temperature, about 50 µg refolded protein; monomer to oligomer equilibrium
protein,measurement,value
"soluble recombinant DC-SIGN, entire extracellular domain (residues 70-404) (domain or fragment, DC-SIGN, entire extracellular domain, residues 70-404 of GenBank NP_066978; cDNA of immature monocyte-derived dendritic cells; the sense primer carries an ATG before the first DC-SIGN codon; The preparation is a monomer:tetramer equilibrium (3.3:1 tetramer to monomer by SEC); the tetramer predominates. pET15b normally adds an N-terminal His6 tag with a thrombin site (surmised); no cleavage is …) EQSRQDAIYQNLTQLKAAVGELSEKSKLQEIYQELTQLKAAVGELPEKSKLQEIYQELTRLKAAVGELPEKSKLQEIYQELTWLKAAVGELPEKSKMQEIYQELTRLKAAVGELPEKSKQQEIYQELTRLKAAVGELPEKSKQQEIYQELTRLKAAVGELPEKSKQQEIYQELTQLKAAVERLCHPCPWEWTFFQGNCYFMSNSQRNWHDSITACKEVGAQLVVIKSAEEQNFLQLQSSRSNRFTWMGLSDLNQEGTWQWVDGSPLLPSFKQYWNRGEPNNVGEEDCAEFSGNGWNDDKCNLAKFWICKKSAASCSRDEEQFLSPAPATPNPPPA",stoichiometry N,4
